Data taken from the supplement of paper PMC9112550, “Optimization of the antimicrobial peptide Bac7 by deep mutational scanning” (BMC Biology, 2022).

Tested on: Escherichia coli TOP10
Test: shrunken log2 fold change of peptide-encoding DNA abundance (4.5 h post-induction vs induction); higher = less antimicrobial activity (less host growth inhibition)
Details: time post-induction: 4.5 h; library: site-saturation at positions 5, 18, 19, 20
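Note: peptides expressed intracellularly from a pBAD plasmid library in pooled LB shake-flask culture, induced with 0.3% L-arabinose, DNA abundance read by NGS, three biological replicates, DESeq2 with apeglm shrinkage.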

RRIRNRPPRLPRPRPRPRVKPRP
shrunken log2 fold change: 0.139

RRIRNRPPRLPRPRPRPRWKPRP
shrunken log2 fold change: -0.109

RRIRNRPPRLPRPRPRPRWRPRP
shrunken log2 fold change: 0.623

RRIRNRPPRLPRPRPRPRYSPRP
shrunken log2 fold change: -0.309

RRIRNRPPRLPRPRPRPRYVPRP
shrunken log2 fold change: -0.265

RRIRNRPPRLPRPRPRPSAEPRP
shrunken log2 fold change: 0.113

RRIRNRPPRLPRPRPRPSCPPRP
shrunken log2 fold change: -0.4

RRIRNRPPRLPRPRPRPSDEPRP
shrunken log2 fold change: -0.189

RRIRNRPPRLPRPRPRPSDKPRP
shrunken log2 fold change: -0.363

RRIRNRPPRLPRPRPRPSEIPRP
shrunken log2 fold change: -0.0685

RRIRNRPPRLPRPRPRPSEKPRP
shrunken log2 fold change: -0.0315

RRIRNRPPRLPRPRPRPSEYPRP
shrunken log2 fold change: -0.386

RRIRNRPPRLPRPRPRPSFEPRP
shrunken log2 fold change: -0.0494

RRIRNRPPRLPRPRPRPSGWPRP
shrunken log2 fold change: -0.137

RRIRNRPPRLPRPRPRPSIFPRP
shrunken log2 fold change: -0.662

RRIRNRPPRLPRPRPRPSIHPRP
shrunken log2 fold change: -0.185

RRIRNRPPRLPRPRPRPSKAPRP
shrunken log2 fold change: -0.0014

RRIRNRPPRLPRPRPRPSKMPRP
shrunken log2 fold change: -0.22

RRIRNRPPRLPRPRPRPSLKPRP
shrunken log2 fold change: -0.47

RRIRNRPPRLPRPRPRPSNRPRP
shrunken log2 fold change: -0.138

RRIRNRPPRLPRPRPRPSPAPRP
shrunken log2 fold change: 0.0876

RRIRNRPPRLPRPRPRPSPTPRP
shrunken log2 fold change: 0.156

RRIRNRPPRLPRPRPRPSQAPRP
shrunken log2 fold change: 0.0297

RRIRNRPPRLPRPRPRPSQLPRP
shrunken log2 fold change: 0.00155

RRIRNRPPRLPRPRPRPSRWPRP
shrunken log2 fold change: 0.417

RRIRNRPPRLPRPRPRPSSCPRP
shrunken log2 fold change: -0.063

RRIRNRPPRLPRPRPRPSSYPRP
shrunken log2 fold change: -0.388

RRIRNRPPRLPRPRPRPSTVPRP
shrunken log2 fold change: -0.103

RRIRNRPPRLPRPRPRPSVGPRP
shrunken log2 fold change: -0.0175

RRIRNRPPRLPRPRPRPSVPPRP
shrunken log2 fold change: -0.344

RRIRNRPPRLPRPRPRPSYPPRP
shrunken log2 fold change: 0.0469

RRIRNRPPRLPRPRPRPTAAPRP
shrunken log2 fold change: 0.543

RRIRNRPPRLPRPRPRPTACPRP
shrunken log2 fold change: 0.0275

RRIRNRPPRLPRPRPRPTAKPRP
shrunken log2 fold change: -0.136

RRIRNRPPRLPRPRPRPTDFPRP
shrunken log2 fold change: -0.164

RRIRNRPPRLPRPRPRPTDRPRP
shrunken log2 fold change: 0.0372

RRIRNRPPRLPRPRPRPTDSPRP
shrunken log2 fold change: -0.21

RRIRNRPPRLPRPRPRPTEHPRP
shrunken log2 fold change: 0.141

RRIRNRPPRLPRPRPRPTELPRP
shrunken log2 fold change: -0.0232

RRIRNRPPRLPRPRPRPTFKPRP
shrunken log2 fold change: -0.175

RRIRNRPPRLPRPRPRPTFRPRP
shrunken log2 fold change: -0.22

RRIRNRPPRLPRPRPRPTHDPRP
shrunken log2 fold change: -0.219

RRIRNRPPRLPRPRPRPTHFPRP
shrunken log2 fold change: -0.659

RRIRNRPPRLPRPRPRPTKHPRP
shrunken log2 fold change: -0.0431

RRIRNRPPRLPRPRPRPTLHPRP
shrunken log2 fold change: -0.0665

RRIRNRPPRLPRPRPRPTLQPRP
shrunken log2 fold change: 0.0909

RRIRNRPPRLPRPRPRPTNYPRP
shrunken log2 fold change: -0.73

RRIRNRPPRLPRPRPRPTPMPRP
shrunken log2 fold change: 0.0289

RRIRNRPPRLPRPRPRPTPPPRP
shrunken log2 fold change: 0.49

RRIRNRPPRLPRPRPRPTRKPRP
shrunken log2 fold change: 0.623

RRIRNRPPRLPRPRPRPTSGPRP
shrunken log2 fold change: 0.211

RRIRNRPPRLPRPRPRPTSIPRP
shrunken log2 fold change: -0.531

RRIRNRPPRLPRPRPRPTSKPRP
shrunken log2 fold change: -0.0758

RRIRNRPPRLPRPRPRPTVSPRP
shrunken log2 fold change: -0.268

RRIRNRPPRLPRPRPRPTWFPRP
shrunken log2 fold change: 0.415

RRIRNRPPRLPRPRPRPTYEPRP
shrunken log2 fold change: -0.172

RRIRNRPPRLPRPRPRPTYSPRP
shrunken log2 fold change: -0.226

RRIRNRPPRLPRPRPRPTYWPRP
shrunken log2 fold change: -0.101

RRIRNRPPRLPRPRPRPVAVPRP
shrunken log2 fold change: -0.0786

RRIRNRPPRLPRPRPRPVCLPRP
shrunken log2 fold change: -0.453

RRIRNRPPRLPRPRPRPVDFPRP
shrunken log2 fold change: -0.262

RRIRNRPPRLPRPRPRPVEQPRP
shrunken log2 fold change: 0.0207

RRIRNRPPRLPRPRPRPVERPRP
shrunken log2 fold change: 0.265

RRIRNRPPRLPRPRPRPVGVPRP
shrunken log2 fold change: -0.0443

RRIRNRPPRLPRPRPRPVHFPRP
shrunken log2 fold change: 0.0937

RRIRNRPPRLPRPRPRPVIGPRP
shrunken log2 fold change: -0.00814

RRIRNRPPRLPRPRPRPVKSPRP
shrunken log2 fold change: 0.00699

RRIRNRPPRLPRPRPRPVKTPRP
shrunken log2 fold change: -0.0264

RRIRNRPPRLPRPRPRPVLDPRP
shrunken log2 fold change: -0.299

RRIRNRPPRLPRPRPRPVLFPRP
shrunken log2 fold change: -0.326

RRIRNRPPRLPRPRPRPVMTPRP
shrunken log2 fold change: 0.0556

RRIRNRPPRLPRPRPRPVMVPRP
shrunken log2 fold change: -0.0209

RRIRNRPPRLPRPRPRPVMYPRP
shrunken log2 fold change: -0.128

RRIRNRPPRLPRPRPRPVQDPRP
shrunken log2 fold change: -0.302

RRIRNRPPRLPRPRPRPVRMPRP
shrunken log2 fold change: -0.132

RRIRNRPPRLPRPRPRPVRQPRP
shrunken log2 fold change: 0.0327

RRIRNRPPRLPRPRPRPVSTPRP
shrunken log2 fold change: -0.272

RRIRNRPPRLPRPRPRPVVNPRP
shrunken log2 fold change: -0.244

RRIRNRPPRLPRPRPRPVYHPRP
shrunken log2 fold change: -0.0311

RRIRNRPPRLPRPRPRPVYSPRP
shrunken log2 fold change: -0.252

RRIRNRPPRLPRPRPRPVYTPRP
shrunken log2 fold change: -0.361

RRIRNRPPRLPRPRPRPWDEPRP
shrunken log2 fold change: 0.0165

RRIRNRPPRLPRPRPRPWDFPRP
shrunken log2 fold change: -0.00226

RRIRNRPPRLPRPRPRPWESPRP
shrunken log2 fold change: 0.291

RRIRNRPPRLPRPRPRPWGWPRP
shrunken log2 fold change: 0.242

RRIRNRPPRLPRPRPRPWHKPRP
shrunken log2 fold change: -0.0524

RRIRNRPPRLPRPRPRPWIDPRP
shrunken log2 fold change: -0.0152

RRIRNRPPRLPRPRPRPWIPPRP
shrunken log2 fold change: -0.536

RRIRNRPPRLPRPRPRPWIVPRP
shrunken log2 fold change: 0.0724

RRIRNRPPRLPRPRPRPWMGPRP
shrunken log2 fold change: -0.558

RRIRNRPPRLPRPRPRPWMYPRP
shrunken log2 fold change: 0.0204

RRIRNRPPRLPRPRPRPWNAPRP
shrunken log2 fold change: -0.255

RRIRNRPPRLPRPRPRPWPAPRP
shrunken log2 fold change: 0.0494

RRIRNRPPRLPRPRPRPWRIPRP
shrunken log2 fold change: 0.0411

RRIRNRPPRLPRPRPRPWSAPRP
shrunken log2 fold change: -0.304

RRIRNRPPRLPRPRPRPWSDPRP
shrunken log2 fold change: -0.0436

RRIRNRPPRLPRPRPRPWVAPRP
shrunken log2 fold change: -0.0268

RRIRNRPPRLPRPRPRPWYNPRP
shrunken log2 fold change: -0.00192

RRIRNRPPRLPRPRPRPYANPRP
shrunken log2 fold change: 0.0782

RRIRNRPPRLPRPRPRPYCHPRP
shrunken log2 fold change: -0.72

RRIRNRPPRLPRPRPRPYCLPRP
shrunken log2 fold change: -0.228

RRIRNRPPRLPRPRPRPYCPPRP
shrunken log2 fold change: -0.187

RRIRNRPPRLPRPRPRPYEAPRP
shrunken log2 fold change: -0.143

RRIRNRPPRLPRPRPRPYEPPRP
shrunken log2 fold change: -0.0287

RRIRNRPPRLPRPRPRPYGWPRP
shrunken log2 fold change: -0.012

RRIRNRPPRLPRPRPRPYHEPRP
shrunken log2 fold change: -0.342

RRIRNRPPRLPRPRPRPYHFPRP
shrunken log2 fold change: -0.309

RRIRNRPPRLPRPRPRPYHTPRP
shrunken log2 fold change: -0.0317

RRIRNRPPRLPRPRPRPYHYPRP
shrunken log2 fold change: -0.722

RRIRNRPPRLPRPRPRPYKAPRP
shrunken log2 fold change: -0.388

RRIRNRPPRLPRPRPRPYKMPRP
shrunken log2 fold change: -0.0115

RRIRNRPPRLPRPRPRPYLAPRP
shrunken log2 fold change: -0.327

RRIRNRPPRLPRPRPRPYMNPRP
shrunken log2 fold change: -0.207

RRIRNRPPRLPRPRPRPYMQPRP
shrunken log2 fold change: -0.315

RRIRNRPPRLPRPRPRPYMVPRP
shrunken log2 fold change: -0.107

RRIRNRPPRLPRPRPRPYNPPRP
shrunken log2 fold change: -0.299

RRIRNRPPRLPRPRPRPYPFPRP
shrunken log2 fold change: 0.0247

RRIRNRPPRLPRPRPRPYQCPRP
shrunken log2 fold change: -0.00804

RRIRNRPPRLPRPRPRPYRFPRP
shrunken log2 fold change: -0.00669

RRIRNRPPRLPRPRPRPYSDPRP
shrunken log2 fold change: -0.031

RRIRNRPPRLPRPRPRPYVEPRP
shrunken log2 fold change: -0.00677

RRIRNRPPRLPRPRPRPYVMPRP
shrunken log2 fold change: -1.01

RRIRNRPPRLPRPRPRPYWMPRP
shrunken log2 fold change: -0.26

RRIRNRPPRLPRPRPRPYYAPRP
shrunken log2 fold change: -0.0919

RRIRNRPPRLPRPRPRPYYIPRP
shrunken log2 fold change: -0.131

RRIRNRPPRLPRPRPRPYYSPRP
shrunken log2 fold change: -0.541

RRIRPRPPRLPRPRPRPAAKPRP
shrunken log2 fold change: 0.435

RRIRPRPPRLPRPRPRPACEPRP
shrunken log2 fold change: 0.0148

RRIRPRPPRLPRPRPRPACLPRP
shrunken log2 fold change: 0.0505

RRIRPRPPRLPRPRPRPADLPRP
shrunken log2 fold change: 0.0166

RRIRPRPPRLPRPRPRPAEDPRP
shrunken log2 fold change: -0.114

RRIRPRPPRLPRPRPRPAEEPRP
shrunken log2 fold change: 0.2

RRIRPRPPRLPRPRPRPAGNPRP
shrunken log2 fold change: 0.194

RRIRPRPPRLPRPRPRPAIWPRP
shrunken log2 fold change: 0.405

RRIRPRPPRLPRPRPRPAIYPRP
shrunken log2 fold change: -0.017

RRIRPRPPRLPRPRPRPAKGPRP
shrunken log2 fold change: 0.403

RRIRPRPPRLPRPRPRPALTPRP
shrunken log2 fold change: 0.241

RRIRPRPPRLPRPRPRPANCPRP
shrunken log2 fold change: 0.0263

RRIRPRPPRLPRPRPRPANNPRP
shrunken log2 fold change: -0.353

RRIRPRPPRLPRPRPRPAPMPRP
shrunken log2 fold change: 0.284

RRIRPRPPRLPRPRPRPAPQPRP
shrunken log2 fold change: 0.461

RRIRPRPPRLPRPRPRPAQNPRP
shrunken log2 fold change: -0.105

RRIRPRPPRLPRPRPRPAQYPRP
shrunken log2 fold change: 0.0469

RRIRPRPPRLPRPRPRPARGPRP
shrunken log2 fold change: 0.606

RRIRPRPPRLPRPRPRPARTPRP
shrunken log2 fold change: 0.396

RRIRPRPPRLPRPRPRPASRPRP
shrunken log2 fold change: 0.0846

RRIRPRPPRLPRPRPRPASSPRP
shrunken log2 fold change: 0.0138

RRIRPRPPRLPRPRPRPASVPRP
shrunken log2 fold change: 0.185

RRIRPRPPRLPRPRPRPATLPRP
shrunken log2 fold change: 0.223

RRIRPRPPRLPRPRPRPAVDPRP
shrunken log2 fold change: 0.249
